According to the Human Domainome abundance scans (Beltran et al. 2025):

B1: Nuclear receptor subfamily 4 group A member 2, residues 260 to 336; numbered along this chain, P43354 (parent)
chain: EGLCAVCGDNAACQHYGVRTCEGCKGFFKRTVQKNAKYVCLANKNCPVDKRRRNRCQYCRFQKCLAVGMVKEVVRTD

Variants of: B1
Test: abundance fitness (aPCA) (normalised: wild type 0, dead -1); higher = more abundant; growth selection in yeast, the domain comes from the species named
Settings: Homo sapiens

Abundance fitness: each site, then its substitutions
G26: A -0.079; Q -0.171; H 0.16; R -0.174; W -0.388
Y16: I -0.432; W -0.351; V -0.185; L -0.081; F 0.037; S -0.1; K -0.185; P -0.112; M 0.383; G -0.01; T -0.131; N 0.029; R -0.051; Q 0.025; A 0.049
Y38: H 0.149; C -0.026; V -0.057
T31: V -0.061; R -0.126; Q -0.167
N43: R -0.014; S -0.123; L -0.059; T -0.505; P -0.219; A 0.245; E -0.198; Q -0.283; M -0.173; V -0.014; I -0.231; W -0.011; F 0.046; G -0.202
K37: Q -0.041; A -0.197; R -0.099; G -0.07; V -0.118; F -0.362; T 0.067; P -0.008; D -0.07; H -0.124; S -0.213; M 0.11; C -0.134; E -0.177; Y 0.019
R19: F 0.14; D -0.202; E 0.064; Q -0.053; V 0.005; W -0.053; N 0.182; S 0.034; H 0.137; I -0.03; M -0.175; A 0.015; L 0.026; C 0.009; Y -0.12; P 0.037; K 0.05
A42: N -0.452; V -0.09; S 0.048; I -0.183; R -0.255; G -0.09; W -0.305; T 0.002; M -0.208; K 0.629
T20: S 0.204
A36: M -0.093; P -0.081; G -0.093; S -0.095; K -0.291; W -0.057; E -0.001; C -0.017; V -0.023; D -0.019; L 0.017; Q -0.085; F 0.458
C24: R -0.954; V -0.802
F27: A -1.06; S -1.12; Y -0.846; H -0.624; L -0.431; M -0.584; I -0.705; T -1.04; G -0.99; R -0.975; V -0.934; W -0.126; K -0.691; E -0.959
R30: Q -0.005; K -0.016; D -0.032; N -0.126; E -0.105; F -0.032; C -0.086; V -0.216; G -0.235; T -0.028; S -0.086; I -0.163; W -0.16; M -0.148
Q14: P -0.012; L 0.221; G 0.005; T -0.013; K 0.256; W 0.017; A 0.207; S 0.117; D -0.189; N -0.088; Y 0.572; E -0.129; M 0.199; R -0.061; V 0.095; I -0.211
K44: C -0.464; A -0.265
H15: R -0.137; G -0.082; Q -0.318; L -0.014; K -0.101; C -0.097; T 0.01; V 0.016; S -0.053; A -0.138; P 0.104; W 0.013; N -0.012; E -0.106; M 0.054
G23: E -0.016; Q -0.208; W -0.029; A -0.136; K 0.106; C 0.065; S 0.306; I 0.017
